In patent publication US20080064628A1, “Fibrinogen Targetting Microparticles For Promoting Haemostasis” (Haemostatix Limited, priority 2003, published 2008):
Values belong to the molecule of their own block, whether it stands above or below them. Ends that are not written are not given here.

Columns and labels:
fibrinogen = molecular target: T1, fibrinogen (Homo sapiens, UniProt P02675+P02679); assay: Fibrinogen binding assay: FITC-labelled anti-human fibrinogen antibody, flow cytometry; conditions: for Percent positive (percentage of microspheres positive for fibrinogen): flow cytometry, FITC rabbit anti-human fibrinogen antibody; for Median fluorescence intensity: measure of the amount of fibrinogen bound to the microspheres
T1 construct: purchased Scottish National Blood Transfusion Service
T1 sequence (P02671 20-629 partner limits assumed): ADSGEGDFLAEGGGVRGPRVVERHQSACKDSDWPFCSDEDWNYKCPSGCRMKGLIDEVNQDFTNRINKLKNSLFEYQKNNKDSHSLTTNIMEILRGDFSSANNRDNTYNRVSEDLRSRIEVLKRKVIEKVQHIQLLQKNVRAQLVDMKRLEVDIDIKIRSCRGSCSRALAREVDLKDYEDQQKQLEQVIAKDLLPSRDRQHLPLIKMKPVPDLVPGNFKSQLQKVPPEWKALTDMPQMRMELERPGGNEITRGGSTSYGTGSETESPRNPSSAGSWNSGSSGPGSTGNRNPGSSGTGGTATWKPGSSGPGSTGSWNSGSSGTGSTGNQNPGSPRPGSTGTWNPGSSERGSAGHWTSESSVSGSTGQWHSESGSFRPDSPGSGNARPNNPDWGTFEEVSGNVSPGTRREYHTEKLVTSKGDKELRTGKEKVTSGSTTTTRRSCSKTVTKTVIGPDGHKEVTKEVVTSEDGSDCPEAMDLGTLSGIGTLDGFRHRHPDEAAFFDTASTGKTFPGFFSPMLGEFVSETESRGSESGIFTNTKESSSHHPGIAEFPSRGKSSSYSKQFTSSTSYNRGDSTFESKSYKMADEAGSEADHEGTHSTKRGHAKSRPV
T1 sequence (P02675 31-491): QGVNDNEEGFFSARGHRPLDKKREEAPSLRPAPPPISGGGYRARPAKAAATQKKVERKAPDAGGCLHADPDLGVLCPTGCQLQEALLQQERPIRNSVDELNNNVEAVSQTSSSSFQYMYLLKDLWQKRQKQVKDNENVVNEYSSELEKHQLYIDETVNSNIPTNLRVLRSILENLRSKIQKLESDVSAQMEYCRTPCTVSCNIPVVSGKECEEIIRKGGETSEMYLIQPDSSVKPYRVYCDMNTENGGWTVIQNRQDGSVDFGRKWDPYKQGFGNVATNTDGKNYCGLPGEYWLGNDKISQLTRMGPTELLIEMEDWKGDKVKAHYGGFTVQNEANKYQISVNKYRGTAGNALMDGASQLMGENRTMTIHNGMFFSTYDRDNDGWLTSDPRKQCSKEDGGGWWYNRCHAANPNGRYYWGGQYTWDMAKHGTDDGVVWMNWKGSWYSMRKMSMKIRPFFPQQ
T1 sequence (P02679 27-437 isoform P02679-2 limits assumed): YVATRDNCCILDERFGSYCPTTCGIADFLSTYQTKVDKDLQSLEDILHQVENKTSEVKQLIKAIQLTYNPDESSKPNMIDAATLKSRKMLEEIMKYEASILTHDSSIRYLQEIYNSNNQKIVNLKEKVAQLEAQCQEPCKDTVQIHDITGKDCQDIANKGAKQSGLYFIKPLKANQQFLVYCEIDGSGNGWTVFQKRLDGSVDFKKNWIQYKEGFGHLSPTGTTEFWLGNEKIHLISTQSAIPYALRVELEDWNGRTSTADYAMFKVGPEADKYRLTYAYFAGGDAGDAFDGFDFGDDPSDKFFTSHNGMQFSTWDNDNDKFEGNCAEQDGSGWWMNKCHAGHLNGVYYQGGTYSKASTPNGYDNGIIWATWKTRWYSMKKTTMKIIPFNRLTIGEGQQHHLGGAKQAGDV
Protocol: 2. Fibrinogen Binding Assay
(i) 5 μl of a suspension of artificial platelets obtained from step (iv) of method 1 above was added to 50 μl of HEPES buffered saline containing 1 μl of FITC-labelled rabbit antibody to human fibrinogen (DakoCytomation; F0111). The mixture was incubated at 20° C. for 20 minutes. Blank microspheres (without DTNB treatment or peptide) or a cysteine control sample were used as a negative control for these assays.
(ii) After 20 minutes the reaction was stopped by the addition of 0.5 ml saline. After a further 10 minutes, the sample was diluted 1/10 in saline and analysed in a Flow Cytometer (e.g. Coulter XL-MCL Flow Cytometer).
(iii) Data were recorded as the percentage of microspheres positive for fibrinogen and the median fluorescence intensity of the particles. The latter is a measure of the amount of fibrinogen bound to the microspheres and is in arbitrary units (log scale).

thrombin = assay: Response of products to thrombin in platelet-free plasma (light transmission aggregometer); format: biochemical, human; conditions: increase in light transmission over 20 minutes, mean ± sd of 4 experiments
Protocol: Cross-linking of the agent of the invention via fibrin-fibrin bridging can be tested in a modified aggregation assay, for example, a protocol based on Levi et al, 1999, Nature Medicine, […], 107-111. The method that we used is reported below.
The assay was performed using a light transmission aggregometer (we used a PAP4 aggregometer (BioData Corporation)). […] Aggregation of the microspheres causes an increase in light transmission, which can be recorded as percentage “aggregation” relative to plasma alone.
The microspheres can be counted using a particle counter such as a Flow cytometer (e.g. Beckman Coulter MCL-XL) or Coulter Z2.
(ii) Platelet-free plasma was prepared by centrifuging blood for 30 minutes at 1500× g and collecting the supernatant.
(iii) 350 μl platelet-free plasma was placed in an aggregometer cuvette and 50 μl of blank microspheres were added. […]

platelets [1] = assay: Platelet aggregation in platelet-depleted plasma by counting single platelets in a flow cytometer; format: cell-based, human; conditions: mean ± sd of 3 experiments; for Percentage aggregation in the absence of ADP: inactive platelets, percentage loss of single CD42b-positive platelets from the gate; for Percentage aggregation in the presence of ADP: platelets activated with sub-optimal ADP, percentage loss of single CD42b-positive platelets
Protocol: 3.2 Preparation of Platelet-Depleted Plasma
(i) Two tubes of blood were collected into tri-sodium citrate anticoagulant, by clean venepuncture via a 21 gauge butterfly needle. The blood was processed within 10 minutes of collection, to minimise platelet activation in vitro.
(ii) One tube of blood was centrifuged at 150× g for 20 minutes at 20° C. to prepare platelet rich plasma (PRP).
(iii) A second tube of blood was centrifuged at 1500× g for 30 minutes at 20° C. to prepare platelet poor plasma (PPP).
(iv) The PRP was removed from the blood cell fraction and mixed with the PPP to achieve a platelet count of between 10 and 50×10^6 platelets/ml.
4.1 Method for Measuring Aggregation by Counting in a Flow Cytometer
Flow cytometry can be used to count the number of residual single platelets, and thereby to calculate the percentage of platelets that have bound to artificial platelets. The sample is analysed by the forward and side scatter and an electronic gate is set around the population of single platelets. To do this a sample of platelet-rich plasma is used that contains EDTA to prevent platelet-platelet aggregation occurring. The platelets are labelled with a fluorescently-conjugated antibody such as a CD42b monoclonal that binds to the GPIb receptor on all platelets.
As aggregation occurs the number of platelets within the gate declines. The artificial platelets should not induce aggregation of non-activated (“resting”) platelets. If, however, the platelets are activated, for example by ADP they should aggregate with the artificial platelets. In this assay a sub-optimal concentration of ADP is used to distinguish the effects of the artificial platelets in platelet-deficient plasma.
(i) To set the platelet gate, whole blood that had been collected into EDTA was used. 5 μl of EDTA anticoagulated blood was added to 50 μl Hepes-buffered saline and analysed by forward and side scatter in a flow cytometer (e.g. Beckman Coulter MCL-XL). A gate was set around the platelet population so that>98% of the single platelets are contained within the platelet gate.
(ii) 400 μL of platelet-depleted plasma, with a platelet count of 10-60×10^6/ml, was mixed with 20 μL of control microspheres (blank capsules as disclosed in Example 1, Method 1 (i)) at 10 mg albumin/ml and ADP was added at final concentrations of between 1 and 4×10^−5 M. The sample was stirred at 900 rpm at 37° C. in an aggregometer cuvette for up 10 minutes and aggregation was measured as the change in light transmission (as described in section 4.2 below). The ADP concentration that gave>0% and<20% aggregation was used for the subsequent analysis of the interaction of the product with platelet-depleted plasma.
(iii) To test the products, 400 μL of platelet-depleted plasma, with a platelet count of 10-60×10^6/ml, was mixed with 20 μL of test microspheres at 10 mg albumin/ml and ADP at a concentration determined as described above. The sample was mixed at 900 rpm for up to 10 minutes. At appropriate times 5 μl aliquots were removed for flow cytometric analysis as follows.
(iv) For the analysis 5 μl of test sample was added to 50 μ1 Hepes-buffered saline containing an appropriate concentration of a fluorescently-conjugated antibody to an antigen present on all platelets. We used 1 μl of an RPE-conjugated CD42b monoclonal antibody (we used antibody 555473 provided by BD Harlingen). The sample was incubated for 20 minutes at room temperature (typically 20° C. ) then diluted with 0.5 ml formyl saline (0.2% formalin in 0.9% NaCl).
(v) The diluted sample was then analysed by forward and side scatter in a flow cytometer (e.g. Beckman Coulter MCL-XL) using the gate set around the platelet population in the control sample (see 4.1.i), allowing a fixed volume of sample (e.g. 20 μl) to pass through the cytometer. Particles enclosed in the platelet gate were analysed for fluorescence to identify the number of single platelets within the gate. […]

platelets [2] = assay: Platelet aggregation in platelet-depleted plasma by light transmission (PAP-4 aggregometer); format: cell-based, human
Protocol: 4.2 Method for Measuring Aggregation by Light Transmission Using the PAP-4 Platelet Aggregometer
In this system the product was mixed with platelet-depleted plasma in a stirred system at […] and aggregation was measured by a change in light transmission.
(i) 400 μl of platelet-depleted plasma was mixed with 20 μl of blank microspheres at 10 mg albumin/ml.
(ii) ADP was added at concentrations between 1 and 4×10^−5M
(iii) Aggregation was measured over 20 minutes and recorded as the percentage of maximum using autologous plasma to set the value for 100% aggregation.

platelets [3] = conditions: purified peptide; cited from earlier work
fibrinogen (human) [4] = molecular target: fibrinogen (human) (UniProt P02671); assay: flow cytometry, FITC anti-human fibrinogen; albumin microspheres without peptide, coated directly with 10 mg/ml fibrinogen at pH 6.0
fibrinogen (human), sequence (P02671 20-629 limits assumed, chain 1 of 3): as the sequence (P02671 20-629 partner limits assumed) above
fibrinogen (human), sequence (P02675 31-491 limits assumed, chain 2 of 3, further chain): as the sequence (P02675 31-491) above
fibrinogen (human), sequence (P02679 other isoform, or with tags, fused parts or gaps limits assumed, chain 3 of 3, further chain): as the sequence (P02679 27-437 isoform P02679-2 limits assumed) above

fibrinogen (human) [5] = molecular target: fibrinogen (human) (UniProt P02671); assay: flow cytometry, FITC anti-human fibrinogen; albumin microspheres without peptide, fibrinogen bound directly to the surface
fibrinogen (human) [6] = molecular target: fibrinogen (human) (UniProt P02671); assay: flow cytometry of peptide-linked albumin microspheres incubated with 3 mg fibrinogen per ml, detected with FITC rabbit anti-human fibrinogen
[7] = listed as peptide-coupled microspheres

Percent positive (percentage of microspheres positive for fibrinogen) (fibrinogen): 94%
Median fluorescence intensity (fibrinogen): 28 arbitrary units (log scale)
Molecule: Peptide Gly^n = 3: albumin microspheres with bound peptide GPRPGGGC, incubated with 3 mg fibrinogen

Percent positive (percentage of microspheres positive for fibrinogen) (fibrinogen): 95%
Median fluorescence intensity (fibrinogen): 26 arbitrary units (log scale)
Molecule: Peptide Gly^n = 6: albumin microspheres with bound peptide GPRPGGGGGGC, incubated with 3 mg fibrinogen

Median fluorescence intensity (arbitrary units (log scale)) (fibrinogen (human) [6]): 2.4
Percent positive (fibrinogen (human) [6]): 6%
B1: peptide GPRPC linked to human albumin microspheres (peptide)
peptide: GPRPC
modifications: also: Cys5 thiol bound to human albumin microspheres (DTNB-activated thiol)

More lines, now with the values behind:

Molecule: Peptide Gly^n = 0: albumin microspheres with bound peptide GPRPC, incubated with 3 mg fibrinogen
Percent positive (percentage of microspheres positive for fibrinogen) (fibrinogen): 6%
Median fluorescence intensity (fibrinogen): 2.4 arbitrary units (log scale)

Molecule: Product 2: albumin microspheres with peptide GPRPGGGGGGC bound, without fibrinogen
Percentage aggregation in the absence of thrombin (thrombin): 4.75 ± 4.4%
Percentage aggregation in the absence of thrombin (thrombin; listed as 0 mg/ml): 4.25 ± 4.93%
Percentage aggregation in the absence of ADP (platelets [1]): 17.8 ± 3.5%
Percentage aggregation in the absence of ADP (platelets [1]; listed as 0 mg/ml): 17.9 ± 3.45%
Percentage aggregation in the absence of ADP (platelets [1]; [7]): 17.8±3.5%
Percentage aggregation in the presence of ADP (platelets [1]): 57.3 ± 9.3%
Percentage aggregation in the presence of ADP (platelets [1]; listed as 0 mg/ml): 57.6 ± 7.64%
Percentage aggregation in the presence of ADP (platelets [1]; [7]): 57.3±9.3%
Aggregation in the absence of ADP (aggregometry) (platelets [2]): only low levels of aggregation
Percent positive (percentage of microspheres positive for fibrinogen) (fibrinogen): 13.1%
Percent positive (percentage of microspheres positive for fibrinogen) (fibrinogen; listed as 0 mg/ml): 0%
Median fluorescence intensity (fibrinogen): 1.6 arbitrary units (log scale)
Median fluorescence intensity (fibrinogen; listed as 0 mg/ml): 0 arbitrary units (log scale)

Molecule: TDVNGDGRHDL [Product B12]
Effect on platelet aggregation (platelets [3]): caused inhibition of platelet aggregation

Molecule: human albumin microspheres of the reference batch (fibrinogen bound directly to the surface, method of WO 98/17319) (from UniProt P02768 25-609)
Median fluorescence intensity (arbitrary units (log scale)) (fibrinogen (human) [4]): 22
Percent positive (fibrinogen (human) [4]): 94%
Median fluorescence intensity (arbitrary units (log scale)) (fibrinogen (human) [5]): 22.4
Percent positive (fibrinogen (human) [5]): 94.7%
